The results in this text go back to publication doi:10.1101/2024.04.19.590210.

The series deals with TF-HIS-BBX13 (BBX13/COL15) (Arabidopsis thaliana, UniProt Q9C7E8 1-433). In words: EMSA.
Sequence of TF-HIS-BBX13 (BBX13/COL15) (Q9C7E8 whole entry): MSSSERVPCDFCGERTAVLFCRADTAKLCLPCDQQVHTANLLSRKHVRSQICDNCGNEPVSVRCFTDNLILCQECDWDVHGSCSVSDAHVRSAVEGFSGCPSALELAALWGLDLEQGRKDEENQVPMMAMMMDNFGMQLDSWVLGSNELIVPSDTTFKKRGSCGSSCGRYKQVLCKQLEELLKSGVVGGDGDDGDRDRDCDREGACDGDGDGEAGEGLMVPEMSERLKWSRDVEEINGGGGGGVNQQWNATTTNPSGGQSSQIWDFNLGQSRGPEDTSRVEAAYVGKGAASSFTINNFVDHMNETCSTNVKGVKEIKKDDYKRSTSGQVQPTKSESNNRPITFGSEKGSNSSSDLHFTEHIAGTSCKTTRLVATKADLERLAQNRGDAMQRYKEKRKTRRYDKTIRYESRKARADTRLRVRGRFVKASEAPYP

B1: FT-CORE2 EMSA probe (FT Biot) (dsDNA)
DNA 1: ATCAATAGACAAGAAAAAGATTGTGGTTATGATTTCACCGACCCGAGTTAATG
DNA 2: CATTAACTCGGGTCGGTGAAATCATAACCACAATCTTTTTCTTGTCTATTGAT
Turning to B1, the binding result is listed as “binds”.
